Our source for the inhibition of ΔFV activity (prothrombinase function, thrombin generation) values is patent publication US20060241039A1.

The experiment has as its target FVa light chain (FVaL) derived from ΔFV or its mutants by thrombin (human) (UniProt P12259). Kind of experiment: cell-based or functional assay.
Chain of UniProt P12259 (P12259 other isoform, or with tags, fused parts or gaps mutant limits assumed): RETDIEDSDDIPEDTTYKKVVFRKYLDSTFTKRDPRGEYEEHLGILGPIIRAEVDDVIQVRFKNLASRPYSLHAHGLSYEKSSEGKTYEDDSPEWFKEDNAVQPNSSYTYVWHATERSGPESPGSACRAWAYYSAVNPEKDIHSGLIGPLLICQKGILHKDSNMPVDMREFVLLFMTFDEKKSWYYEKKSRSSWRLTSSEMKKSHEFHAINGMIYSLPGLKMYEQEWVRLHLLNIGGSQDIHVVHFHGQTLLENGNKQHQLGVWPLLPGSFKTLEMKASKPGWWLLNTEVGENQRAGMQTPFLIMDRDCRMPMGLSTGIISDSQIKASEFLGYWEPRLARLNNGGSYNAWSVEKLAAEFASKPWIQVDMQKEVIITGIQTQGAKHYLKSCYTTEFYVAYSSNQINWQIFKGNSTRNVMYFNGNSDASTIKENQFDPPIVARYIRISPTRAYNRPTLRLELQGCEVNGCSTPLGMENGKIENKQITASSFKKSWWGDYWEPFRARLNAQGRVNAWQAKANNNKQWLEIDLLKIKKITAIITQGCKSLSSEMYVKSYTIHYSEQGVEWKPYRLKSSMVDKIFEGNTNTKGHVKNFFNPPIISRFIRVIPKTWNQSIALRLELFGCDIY

Substance “FVaH derived from ΔFV multipoint mutant ED/EDD (E96, D102, E108, D111 and D112 to Ala) (from UniProt P12259 29-737)” returned an inhibition of ΔFV activity (prothrombinase function, thrombin generation) of 98%.
